# Experimental data published in patent US20240317847A1 (Bayer, published 2024).
# T1: human IL-11 (human, UniProt P20809 22-199)
# T1 construct: Invigate recombinant protein; biotinylated when immobilized in the Di-complex ELISA; also called hIL11; hIL-11
# T1 sequence: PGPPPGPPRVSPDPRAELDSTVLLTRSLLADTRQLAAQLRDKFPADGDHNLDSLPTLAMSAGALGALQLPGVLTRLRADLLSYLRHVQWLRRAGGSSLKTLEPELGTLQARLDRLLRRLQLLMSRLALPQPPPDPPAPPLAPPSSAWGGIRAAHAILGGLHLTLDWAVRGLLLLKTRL
# T2: murine IL-11 (mouse, UniProt P47873 22-199)
# T2 construct: Invigate recombinant protein; biotinylated when immobilized in the Di-complex ELISA; also called mIL11; mIL-11
# T2 sequence: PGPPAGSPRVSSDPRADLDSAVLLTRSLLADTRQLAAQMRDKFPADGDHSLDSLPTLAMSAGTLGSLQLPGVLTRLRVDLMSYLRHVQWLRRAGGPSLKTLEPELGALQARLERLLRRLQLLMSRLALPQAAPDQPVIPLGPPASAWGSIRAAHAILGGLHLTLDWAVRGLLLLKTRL
# T3: human IL2Ra (human, UniProt P01589 22-240, limits assumed)
# T3 construct: coated on the ELISA plate; also called IL-2 receptor alpha
# T3 sequence (looked up): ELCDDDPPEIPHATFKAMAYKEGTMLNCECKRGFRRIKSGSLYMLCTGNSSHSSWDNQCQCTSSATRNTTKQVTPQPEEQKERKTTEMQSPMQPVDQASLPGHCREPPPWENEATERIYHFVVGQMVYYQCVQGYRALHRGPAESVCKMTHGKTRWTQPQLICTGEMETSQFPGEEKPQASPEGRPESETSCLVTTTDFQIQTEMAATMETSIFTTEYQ
# B1: TPP-29523 (antibody, mouse IgG1)
# heavy: QVQLVESGGGVVQPGRSLRLSCAASGFTFSHYDMHWVRQAPGKGLEWVAVISYEGSVKFYADSVKGRFTISRDNSKNTLYLQMNSLRAEDTAVYYCARTPGFHFDYWGQGTLVTVSSAKTTPPSVYPLAPGSAAQTNSMVTLGCLVKGYFPEPVTVTWNSGSLSSGVHTFPAVLQSDLYTLSSSVTVPSSTWPSETVTCNVAHPASSTKVDKKIVPRDCGCKPCICTVPEVSSVFIFPPKPKDVLTITLTPKVTCVVVDISKDDPEVQFSWFVDDVEVHTAQTQPREEQFNSTFRSVSELPIMHQDWLNGKEFKCRVNSAAFPAPIEKTISKTKGRPKAPQVYTIPPPKEQMAKDKVSLTCMITDFFPEDITVEWQWNGQPAENYKNTQPIMDTDGSYFVYSKLNVQKSNWEAGNTFTCSVLHEGLHNHHTEKSLSHSPGK
# light: QSVLTQPPSASGTPGQRVTISCSGSSSNIGSNYVNWYQQLPGTAPKLLIYYDDLRPSGVPDRFSGSKSGTSASLAISGLRSEDEADYYCSAWDDSLSGVVFGGGTKLTVLGQPKSSPSVTLFPPSSEELETNKATLVCTITDFYPGVVTVDWKVDGTPVTQGMETTQPSKQSNNKYMASSYLTLTARAWERHSSYSCQVTHEGHTVEKSLSRADCS
# notes: mIgG1, Lambda
# B2: TPP-29521 (antibody, mouse IgG1)
# heavy: QVQLVESGGGVVQPGRSLRLSCAASGFTFSHYDMHWVRQAPGKGLEWVAVISYEGSNKFYADSVKGRFTISRDNSKNTLYLQMNSLRAEDTAVYYCARTPGFHFDYWGQGTLVTVSSAKTTPPSVYPLAPGSAAQTNSMVTLGCLVKGYFPEPVTVTWNSGSLSSGVHTFPAVLQSDLYTLSSSVTVPSSTWPSETVTCNVAHPASSTKVDKKIVPRDCGCKPCICTVPEVSSVFIFPPKPKDVLTITLTPKVTCVVVDISKDDPEVQFSWFVDDVEVHTAQTQPREEQFNSTFRSVSELPIMHQDWLNGKEFKCRVNSAAFPAPIEKTISKTKGRPKAPQVYTIPPPKEQMAKDKVSLTCMITDFFPEDITVEWQWNGQPAENYKNTQPIMDTDGSYFVYSKLNVQKSNWEAGNTFTCSVLHEGLHNHHTEKSLSHSPGK
# light: QSVLTQPPSASGTPGQRVTISCSGSSSNIGSNYVSWYQQLPGTAPKLLIYYDDLRPSGVPDRFSGSKSGTSASLAISGLRSEDEADYYCSAWDDSLSGVVFGGGTKLTVLGQPKSSPSVTLFPPSSEELETNKATLVCTITDFYPGVVTVDWKVDGTPVTQGMETTQPSKQSNNKYMASSYLTLTARAWERHSSYSCQVTHEGHTVEKSLSRADCS
# notes: mIgG1, Lambda
# B3: TPP-29520 (antibody, mouse IgG1)
# heavy: QVQLVESGGGVVQPGRSLRLSCAASGFTFSHYDMHWVRQAPGKGLEWVAVISYSGSVKFYADSVKGRFTISRDNSKNTLYLQMNSLRAEDTAVYYCARTPGSHFDYWGQGTLVTVSSAKTTPPSVYPLAPGSAAQTNSMVTLGCLVKGYFPEPVTVTWNSGSLSSGVHTFPAVLQSDLYTLSSSVTVPSSTWPSETVTCNVAHPASSTKVDKKIVPRDCGCKPCICTVPEVSSVFIFPPKPKDVLTITLTPKVTCVVVDISKDDPEVQFSWFVDDVEVHTAQTQPREEQFNSTFRSVSELPIMHQDWLNGKEFKCRVNSAAFPAPIEKTISKTKGRPKAPQVYTIPPPKEQMAKDKVSLTCMITDFFPEDITVEWQWNGQPAENYKNTQPIMDTDGSYFVYSKLNVQKSNWEAGNTFTCSVLHEGLHNHHTEKSLSHSPGK
# light: QSVLTQPPSASGTPGQRVTISCSGSSSNIGSNYVNWYQQLPGTAPKLLIYYDDLRPSGVPDRFSGSKSGTSASLAISGLRSEDEADYYCSAWDDSLSGVVFGGGTKLTVLGQPKSSPSVTLFPPSSEELETNKATLVCTITDFYPGVVTVDWKVDGTPVTQGMETTQPSKQSNNKYMASSYLTLTARAWERHSSYSCQVTHEGHTVEKSLSRADCS
# notes: mIgG1, Lambda
# B4: TPP-29522 (antibody, mouse IgG1)
# heavy: QVQLVESGGGVVQPGRSLRLSCAASGFTFSHYDMHWVRQAPGKGLEWVAVISYEGSNKFYADSVKGRFTISRDNSKNTLYLQMNSLRAEDTAVYYCARTPGFHFDYWGQGTLVTVSSAKTTPPSVYPLAPGSAAQTNSMVTLGCLVKGYFPEPVTVTWNSGSLSSGVHTFPAVLQSDLYTLSSSVTVPSSTWPSETVTCNVAHPASSTKVDKKIVPRDCGCKPCICTVPEVSSVFIFPPKPKDVLTITLTPKVTCVVVDISKDDPEVQFSWFVDDVEVHTAQTQPREEQFNSTFRSVSELPIMHQDWLNGKEFKCRVNSAAFPAPIEKTISKTKGRPKAPQVYTIPPPKEQMAKDKVSLTCMITDFFPEDITVEWQWNGQPAENYKNTQPIMDTDGSYFVYSKLNVQKSNWEAGNTFTCSVLHEGLHNHHTEKSLSHSPGK
# light: QSVLTQPPSASGTPGQRVTISCSGSSSNIGSNYVNWYQQLPGTAPKLLIYYDDLRPSGVPDRFSGSKSGTSASLAISGLRSEDEADYYCSAWDDSLSGVVFGGGTKLTVLGQPKSSPSVTLFPPSSEELETNKATLVCTITDFYPGVVTVDWKVDGTPVTQGMETTQPSKQSNNKYMASSYLTLTARAWERHSSYSCQVTHEGHTVEKSLSRADCS
# notes: mIgG1, Lambda
# Experiments:
# human IL-11 = target: T1, human IL-11; experiment: Tri-complex ELISA, hIL-11 + mIL-11Ra-Fc + hgp130-Fc, inhibition of complex formation
# Protocol: In the Tri-complex ELISA format IL-11 antibodies are tested for their ability to inhibit the formation of a complex consisting of murine or human gp130-Fc fusion protein, with murine or human IL-11, and a murine IL11RA-Fc fusion protein. The assay format was adapted according to FIG. 18 (a, b), depending on whether murine or human IL-11 IgG antibodies were tested.
# (§1) IgG converted antibodies were subjected to the experimental assay procedure described in Example 19 and IC50 [M], respectively efficacy (%) were calculated accordingly.
# murine IL-11 = target: T2, murine IL-11; experiment: Tri-complex ELISA, mIL-11 + mIL-11Ra-Fc + mgp130-Fc, inhibition of complex formation
# Protocol: In a first step, 25 μl of goat anti human IgG (Sigma, #12136), diluted 1:1000 in coating buffer (Candor, #121125) was coated on the plate at 4° C. overnight. Next day, the plate was washed one time with 50 μl PBST and then blocked with 50 μl SmartBlock (Candor, #113125) for one hour at room temperature (RT). […] After three additional washes of the coated and blocked microtiter plate with PBS-T, 25 μl of each mixture were added and the assay plate was incubated for one hour at room temperature. After three additional washes, anti-mouse-gp130 biotinylated antibody (R&D, #BAF468) or anti-human gp130 biotinylated antibody (R&D, #BAF228), both 1:1000 in 10% SmartBlock PBS-T, was added and incubated for 1 hour at RT. After three additional washes, a Streptavidin-Peroxidase conjugate (Sigma, #S5512) 1:1000 in SmartBlock PBS-T was added and incubated for one hour at room temperature. After a final three washes, AmplexRed (Fisher Scientific, A12222), 1/1000 in PBS, 0,003% H₂O₂, was added as substrate and incubated for 15 min at RT in the dark. Then, the fluorescence was measured with a plate reader at 535/595 nm. Signals from dose responses were used to calculate IC50 values using GraphPad Prism software. Efficacy was calculated as [(signal measured at lowest antibody concentration−signal measured at the highest antibody concentration)×100] divided by (signal measured at lowest antibody concentration−signal measured in the absence of antibody at an IL11 concentration of 8.2E-11 [M]).
# as §1
# human IL2Ra = target: T3, human IL2Ra; experiment: ELISA on coated IL2Ra, signal ratio to isotype control TPP-10159 at 3.3E-7 M antibody
# Protocol: IL2RA (Peprotech, Germany, #200-02RC) was coated at 1 or 0 μg/ml (buffer only control) in 30 μl coating buffer (Candor, #113500) per well on a 384 well microtiter plate (Maxisorb, Nunc, #460518) over night at 4-8° C. After two washes with 50 μl/well washing buffer (PBS+0.05% Tween, pH 7.4), the plates were incubated for two hours at room temperature with 50 μl/well SmartBlock (Candor, #113500). After blocking, the plates were washed three times with washing buffer. Then, a dilution series of the respective antibody (1E-7 [M] down to 2E-13 [M]) in PBS+0.05% Tween, 10% SmartBlock were added in 30 μl to the microtiter plate and incubated for 90 min at room temperature. After three additional washes, 30 μl anti mouse IgG HRP-conjugated antibody (Biotechne, HAF007), diluted 1:1000 in PBS+0.05% Tween (pH 7.4), were added per well and incubated for one hour. After three additional washes, a mixture of Amplex red (Invitrogen, #12222, 10 mM stock solution in DMSO) 1:1000 diluted in PBS and H2O2 (30%, Merck, #107209)) diluted 1:10000 in PBS were added as substrate with 30 μl per well and incubated for 20 min in the dark. Relative fluorescence was measured with a microtiter plate reader at 535/590 nm.
# IgG converted antibodies TPP-were tested for binding to IL2Ra as described in Example 20. The ratios of the signals obtained at an antibody concentration of 3.3E-7 [M] for IgG converted antibody versus the isotype control TPP-10159 were calculated and are shown in Table E22.
binder,measurement,setting,value
B1,Efficacy (%),human IL-11,84.3%
same,IC50,human IL-11,2100 pM
same,Efficacy (%),murine IL-11,84.3%
same,IC50,murine IL-11,120 pM
same,Antibody/Isotype Control Ratio of IL-2Ra Binding Signals,human IL2Ra,1.2 ratio
B2,Efficacy (%),human IL-11,85.7%
same,IC50,human IL-11,1800 pM
same,Efficacy (%),murine IL-11,85.7%
same,IC50,murine IL-11,92 pM
same,Antibody/Isotype Control Ratio of IL-2Ra Binding Signals,human IL2Ra,0.7 ratio
B3,Efficacy (%),human IL-11,81.8%
same,IC50,human IL-11,1300 pM
same,Efficacy (%),murine IL-11,81.8%
same,IC50,murine IL-11,130 pM
same,Antibody/Isotype Control Ratio of IL-2Ra Binding Signals,human IL2Ra,0.6 ratio
B4,Efficacy (%),human IL-11,85.4%
same,IC50,human IL-11,2000 pM
same,Efficacy (%),murine IL-11,85.4%
same,IC50,murine IL-11,110 pM
same,Antibody/Isotype Control Ratio of IL-2Ra Binding Signals,human IL2Ra,0.7 ratio
